For 2 molecules, Kd and IC50 results are on record in patent publication US20220098591, “STEM-LOOP COMPOSITIONS AND METHODS FOR INHIBITING VASCULAR ENDOTHELIAL GROWTN FACTOR” (DRIVE THERAPEUTICS LLC, published 2022).

For orientation: Kd means the constant that tells how readily two partners part at equilibrium. For orientation: IC50 means the concentration at which inhibition is half-maximal. Higher therefore signals weaker potency.

The target of data set [1] is T1, VEGF-A121 (Homo sapiens, UniProt P15692 SEQ:1-121). The data set can be described thus: direct TR-FRET, RT; error not given. As to conditions: tags: glycan-biotinylated for SPR/FRET/AlphaLISA; Acro BioSystems, Biolegend; chain copies: 2 (stated); stem-loop. The protocol: (§1) Briefly, ALEXA FLUOR® 647-labeled aptamers were heated to 90° C. for 3 minutes and cooled to room temperature. Titrations of ALEXA FLUOR® 647-labeled aptamers and ALEXA FLUOR® 647-labeled anti-VEGF-A antibody were made in TR-FRET buffer (50 mM MOPS, pH 7.4, 125 mM NaCl, 5 mM KCl, 50 μM CHAPS, 0.1 mg/mL BSA, 1 mM CaCl₂, and 1 mM MgCl₂) in a polypropylene plate. 5 μL of aptamers or antibody were transferred to the black wall low volume 384 well assay plate (Greiner), followed by 5 μL glycan biotinylated VEGF-A₁₂₁ (2.5 nM final), and 5 μL Streptavidin-Eu (Perkin Elmer; 2.5 nM final). The plate was covered with a plate seal and subsequently incubated in the dark for 2 hours at room temperature. The plate was read on a Biotek CYTATION™ 5 plate reader. Samples were excited at 330 nm and fluorescent values were collected at 665 nm.
(§2) No protein background fluorescent values were averaged and subtracted from test compounds, with data normalized as a fold change to highest concentrations of aptamers and antibody. These values were fit using a four-parameter non-linear fit in GraphPad Prism Version 7.0.
In general terms: TR-FRET usually uses a lanthanide donor and a delayed reading to cut background.

The target in data set [2] is T2, VEGF-A165 (Homo sapiens).
T2 chain: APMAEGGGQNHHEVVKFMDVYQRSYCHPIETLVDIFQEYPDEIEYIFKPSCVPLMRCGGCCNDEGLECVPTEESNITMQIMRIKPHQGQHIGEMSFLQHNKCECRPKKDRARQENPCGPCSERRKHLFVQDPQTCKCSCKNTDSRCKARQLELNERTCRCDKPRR
The data set is described as follows: competition; AlphaLISA, blocks KDR binding. The conditions noted are these: tags: glycan-biotinylated for SPR/FRET/AlphaLISA; Acro BioSystems, R&D Systems; chain copies: 2 (inferred); stem-loop. On the technique in general: Bead proximity is the source of the signal in Alpha formats.
Description: Briefly, the aptamers were heated at 90° C. for 3 minutes and allowed to cool to room temperature for a minimum of 10 minutes. Aptamers and anti-VEGF-A antibody were serial diluted in a polypropylene plate and 5 μL was transferred to a white low volume 384 well Optiplate (Perkin Elmer). A solution of VEGF-A₁₆₅ (Acro BioSystems) or VEGF-A₁₂₁ (Acro BioSystems) that was glycan biotinylated was prepared and added to the assay plate containing aptamers or anti-VEGF-A antibody to yield a final assay concentration of 2 nM. A mixture of human recombinant his-tagged KDR, (Sino Biological), AlphaLISA® nickel chelate acceptor beads (Perkin Elmer), and AlphaScreen® streptavidin donor beads (Perkin Elmer) was then prepared and 10 μL was added to the assay plate. The final concentrations of KDR and beads were 5 nM and 5 ug/mL, respectively. The assay plate was sealed and incubated in the dark for approximately 2 hours, after which it was read on a Biotek CYTATION™ 5 plate reader using the Alpha 384 well optical cube. The low signal control was determined using excess anti-VEGF-A inhibitor and the high signal control was determined by buffer only.
The mechanism of action of lead aptamers was characterized by interrogating their ability to inhibit the VEGF-A:KDR interaction with both VEGF-A₁₆₅ and VEGF-A₁₂₁.

Data set [3] addresses T2, VEGF-A165. The data set is described as follows: direct TR-FRET, MOPS pH 7.4, 1 mM CaCl2, 1 mM MgCl2, RT. As to conditions: tags: glycan-biotinylated for SPR/FRET/AlphaLISA; Acro BioSystems, R&D Systems; chain copies: 2 (inferred); stem-loop.
Data set [4] concerns the target T1, VEGF-A121. The data set is described as follows: SPR; HEPES pH 7.4, 1 mM MgCl2, 1 mM CaCl2. The conditions noted are these: tags: glycan-biotinylated for SPR/FRET/AlphaLISA; Acro BioSystems, Biolegend; chain copies: 2 (stated); stem-loop. As for the experimental part:
(§3) Aptamer 26 was identical in sequence to Aptamer 4.2 but contained a hexylamine linker in place of the C6 disulfide linker at the 5′ terminus. […] Briefly, in the SPR studies, 1.0-2.5 μg/mL of glycan biotinylated VEGF-A₁₆₅, VEGF-A₁₂₁, and VEGF-A₁₁₀ were diluted in HEPES running buffer (10 mM HEPES, 137.5 mM NaCl, 5.7 mM KCl, 1 mM MgCl₂, 1 mM CaCl₂, and 0.05% Tween20; pH 7.4) and immobilized to a streptavidin dextran chip (GE Healthcare Life Sciences) for 1-2 minutes. The chip was then blocked with 0.2 mg/mL biotin in running buffer, followed by 3 cycles of buffer blanks and regenerated with 50 mM NaOH to equilibrate the chip. […] After coating and blocking, samples were screened at 100 nM in duplicate injections at a flow rate of 25 μL/min, with an association time of 3 minutes 20 seconds and a dissociation time of 10 minutes. Regeneration conditions of chips were optimized based on the protein immobilized and effected with either 50 mM NaOH for 30 seconds or 2M guanidine HCl for 2×40 seconds.
(§4) Data was fit to a 1:1 kinetic binding model.

A further data set concerns the target VEGF-A110 (Homo sapiens, UniProt P15692 SEQ:1-110). The data set can be described thus: SPR; HEPES pH 7.4, 1 mM MgCl2, 1 mM CaCl2. The conditions noted are these: tags: glycan-biotinylated; chain copies: 2 (stated); stem-loop. The protocol:
as §3, §4
(Surface plasmon resonance follows binding to a sensor surface in real time, without labels.)

For data set [5], the target named is T1, VEGF-A121. The data set is described as follows: competition; AlphaLISA, blocks KDR binding. As to conditions: tags: glycan-biotinylated for SPR/FRET/AlphaLISA; Acro BioSystems, Biolegend; chain copies: 2 (stated); stem-loop.
Target sequence in this assay (P15692 other isoform, or with tags, fused parts or gaps): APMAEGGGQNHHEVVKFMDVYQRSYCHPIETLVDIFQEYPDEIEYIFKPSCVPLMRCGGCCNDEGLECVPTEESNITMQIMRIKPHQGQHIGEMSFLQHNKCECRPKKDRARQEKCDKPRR
For data set [6], the target named is T2, VEGF-A165. The data set is described as follows: SPR; HEPES pH 7.4, 137.5 mM NaCl, 1 mM MgCl2, 1 mM CaCl2. As to conditions: tags: glycan-biotinylated for SPR/FRET/AlphaLISA; Acro BioSystems, R&D Systems; chain copies: 2 (inferred); stem-loop. As for the experimental part: as §3, §4
For data set [7], the target named is T2, VEGF-A165. The data set is described as follows: competition; AlphaLISA, blocks KDR binding; limited by VEGF-A concentration. As to conditions: tags: glycan-biotinylated for SPR/FRET/AlphaLISA; Acro BioSystems, R&D Systems; chain copies: 2 (inferred); stem-loop.
The target of data set [8] is T2, VEGF-A165. The data set is described as follows: direct TR-FRET, RT; limited by VEGF-A concentration. As to conditions: tags: glycan-biotinylated for SPR/FRET/AlphaLISA; Acro BioSystems, R&D Systems; chain copies: 2 (inferred); stem-loop.
The target of data set [9] is T1, VEGF-A121. The data set can be described thus: direct TR-FRET, RT. As to conditions: tags: glycan-biotinylated for SPR/FRET/AlphaLISA; Acro BioSystems, Biolegend; chain copies: 2 (stated); stem-loop. As for the experimental part:
as §1, §2

B1: Aptamer 26 (ssRNA)
RNA: UAGGCCGCCUCCGCGCGGAGGGGUUUCAUUAUCCCGUUUGGCGGCUUU
modifications: all G 2'-F; all A,C,U 2'-OMe; 5' C6NH2; 3' idT (Tables 14-16 print it without the terminal U residues)
In the case of B1, the Kd in the data set with VEGF-A121 [1] was 46 nM; with VEGF-A165 [3], 4 nM; with VEGF-A121 [4] it was 4.6 nM; with VEGF-A110, 9.9 nM; with VEGF-A165 [6] it was 0.5 nM. Besides, the figures for the IC50 with VEGF-A165 [2] and with VEGF-A121 [5] were 3.7 nM and 19 nM, respectively.

B2: Aptamer 141 (ssRNA)
RNA: AGGCCGACCCGCGCGGAGGGGUUUCAUUAUCCCGUUUGUCGGCUU
modifications: all G 2'-F; A,C,U 2'-OMe; Sp3 joins the two parts (position 9); 5' C6NH2; 3' idT
On to B2, for which the half-inhibitory concentration (IC50) with VEGF-A165 [7] is 0.81 nM; in the data set with VEGF-A121 [5], 3.2 nM. Further, the Kd with VEGF-A165 [8] turned out to be 1.2 nM; with VEGF-A121 [9] it was 4.3 nM.
